The target of the test is CD38 on cells (Raji, Daudi, REH, CD38-transfected HEK293) (human) (UniProt P28907). Description: flow cytometry on Raji cells; top asymptote fixed at about the maximum response of Darzalex.

As to Darzalex® (CD38 control) (antibody), the Adjusted* EC50 worked out at 1.27 nM.

Source of the values: patent US20260103536A1.
